B1: CDC25A (parent)
chain: TVAGKHQDLKYISPEIMASVLNGK

Variants of: B1
Assay: protein stability index of a GFP-peptide fusion (GPS, HEK-293T) (PSI 1-6); higher = more stable
Conditions: c terminus: a fixed tail appended
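Also: lentivirally expressed fusions sorted by FACS into six bins by GFP to DsRed ratio, PSI derived from sequencing read proportions per bin multiplied by bin number.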

Protein stability index, by site and new letter:
A18: D 3.45 | V 2.54 | P 3.6 | F 2.73 | E 4 | W 1.97 | K 3.16 | C 3.11 | H 3.08 | I 2.13 | T 3.74 | L 2.53 | N 3.1 | G 3.44 | Q 3.34 | M 2.33 | S 3.3 | R 2.71
V2: L 2.96 | P 3.51 | S 3.28 | R 3.21 | E 3.68 | F 2.94 | T 3.41 | W 2.55 | H 3.33 | K 2.92 | I 2.91 | C 3.32 | A 3.28 | Y 2.79 | G 3.33 | Q 3.35 | D 3.89 | N 3.11 | M 3.11
P14: A 2.41 | Q 2.87 | F 2.24 | E 3.49 | R 2.91 | H 2.19 | N 3.29 | T 2.55 | I 2.76 | W 2.13 | G 3.14 | C 1.85 | D 3.4 | L 2.4 | V 2.7 | Y 2.79 | K 2.96 | S 2.55 | M 2.02
K10: T 3.31 | M 2.69 | Q 2.85 | Y 1.76 | A 2.99 | L 1.9 | E 3.42 | D 3.85 | P 3.21 | H 2.88 | W 1.62 | N 3.34 | R 2.8 | C 2.52 | G 3.44 | S 2.99 | F 1.78 | V 2.24 | I 1.69
D8: A 2.65 | V 2.66 | R 2.28 | I 2.35 | W 1.68 | L 2.05 | Q 2.5 | S 2.63 | N 2.62 | E 3.21 | T 2.56 | Y 1.9 | H 2.51 | F 1.87 | C 2.32 | G 3.06 | K 2.54 | M 2.25 | P 2.91
Y11: L 3.26 | I 3.52 | K 3.53 | A 3.29 | C 3.32 | S 3.71 | E 4.09 | V 3.29 | H 3.73 | M 3.16 | D 4.38 | G 3.87 | T 3.79 | N 3.86 | P 3.95 | R 3.59 | Q 3.47 | F 2.77 | W 2.78
L9: W 2.81 | F 3.1 | M 3.29 | N 3.72 | P 3.37 | C 3.13 | K 3.74 | E 3.94 | R 3.51 | I 3.25 | Q 3.71 | G 3.77 | H 3.65 | S 3.33 | T 3.47 | A 3.44 | V 3.27 | Y 3.08 | D 4.09
T1: W 2.06 | I 2.6 | V 2.52 | M 2.34 | L 2.15 | R 2.52 | K 3.17 | S 3.14 | Q 3.22 | Y 3.42 | P 3.34 | N 3.69
Q7: Y 2.49 | T 2.69 | V 3.17 | C 2.79 | H 3.27 | I 2.37 | K 2.6 | F 2.3 | W 2.36 | L 2.62 | G 3.08 | R 2.64 | S 3.16 | A 2.85 | M 2.7 | D 3.06 | P 3.24 | E 3.52 | N 2.46
I12: N 3.46 | D 4.16 | S 3.91 | H 3.29 | R 3.58 | T 3.76 | L 3.16 | P 3.57 | W 2.64 | A 3.49 | Y 3.37 | E 3.83 | Q 4.04 | F 2.94 | G 3.82 | V 3.71 | C 3.23 | M 3.48 | K 3.83
G4: D 3.27 | E 3.78 | P 3.44 | W 2.27 | V 3.38 | T 3.11 | C 2.82 | Q 3.42 | L 3.16 | N 3.54 | K 3.06 | F 2.38 | I 2.68 | A 2.82 | H 3.35 | M 2.89 | S 3.39 | R 3.5 | Y 3.09
S13: K 3.16 | C 2.43 | P 3.12 | L 2.49 | V 2.65 | W 2.12 | Y 2.63 | Q 3.53 | N 3.32 | T 3.15 | A 3.4 | H 2.71 | M 2.31 | G 3.37 | F 2.39 | I 2.19 | E 3.69 | D 3.73 | R 3.21
I16: D 4.25 | C 3.44 | A 3.66 | R 3.73 | E 4.29 | W 2.87 | K 3.42 | L 2.86 | T 3.62 | G 3.84 | Y 2.85 | M 3.62 | Q 4.28 | V 3.47 | S 3.78 | N 3.8 | P 4.45 | H 3.97 | F 2.87
K5: H 3.54 | M 3.01 | N 3.07 | E 3.5 | W 2.75 | I 2.55 | R 3.2 | Q 3.53 | V 3.21 | C 2.61 | Y 3.03 | L 3.06 | G 3.6 | S 3.5 | P 3.17 | D 3.56 | T 3.68 | A 3.45 | F 3.2
M17: V 3.42 | N 3.74 | S 4.12 | T 3.22 | R 3.87 | H 3.8 | K 3.96 | A 3.96 | C 3.42 | L 2.64 | E 4.21 | D 3.89 | P 4 | G 3.88 | F 2.78 | I 2.71 | W 2.46 | Y 3.1 | Q 3.73
E15: M 2.19 | A 2.77 | C 2.25 | R 2.64 | F 2.07 | D 3.42 | Y 1.84 | P 3.05 | K 2.68 | Q 2.82 | V 1.89 | I 1.78 | H 2.74 | G 3.08 | L 1.99 | T 2.63 | W 1.76 | S 3.09 | N 2.95
A3: R 2.85 | L 2.69 | F 2.56 | M 2.82 | H 2.85 | E 3.39 | D 3.74 | I 2.61 | S 2.93 | N 2.79 | G 3.14 | P 3.52 | T 3.31 | V 3.38 | W 2.16 | K 3.41 | Q 2.7 | Y 2.79 | C 2.47
H6: G 3.06 | V 2.45 | K 3.27 | S 2.94 | C 2.57 | E 3.66 | I 2.63 | A 3.73 | N 2.96 | R 2.81 | W 2.24 | F 2.75 | M 2.26 | Y 3.25 | P 3.38 | D 3.92 | Q 3.43 | L 2.13 | T 3.24
